Measurements published in PMC1420302.

Molecular target: SF3b1-NT-His6 (human) (UniProt O75533)
Sequence of UniProt O75533 (O75533 1-511): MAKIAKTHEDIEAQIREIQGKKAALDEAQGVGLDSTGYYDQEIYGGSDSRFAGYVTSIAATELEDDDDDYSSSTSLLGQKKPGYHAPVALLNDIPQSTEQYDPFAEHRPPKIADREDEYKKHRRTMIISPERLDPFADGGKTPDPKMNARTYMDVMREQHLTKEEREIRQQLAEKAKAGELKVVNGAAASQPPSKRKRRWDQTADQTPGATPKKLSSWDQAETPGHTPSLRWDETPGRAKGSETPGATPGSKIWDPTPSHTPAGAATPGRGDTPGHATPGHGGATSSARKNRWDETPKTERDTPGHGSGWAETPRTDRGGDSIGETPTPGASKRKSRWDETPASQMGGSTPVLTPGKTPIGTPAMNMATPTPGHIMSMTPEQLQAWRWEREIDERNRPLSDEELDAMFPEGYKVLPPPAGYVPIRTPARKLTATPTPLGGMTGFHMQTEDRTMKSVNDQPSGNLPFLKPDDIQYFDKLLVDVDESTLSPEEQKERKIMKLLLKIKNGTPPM

Row | approximate Km of phosphorylation, from velocities of phosphate incorporation at 0.7 and 7 μM substrate [µM] | Substance
1 | 2.75 | GST-DYRK1A-ΔC (from UniProt Q63470 1-763) (enzyme)
2 | 3.51 | cyclin E/CDK2 (from UniProt P24864 1-410; P24941 1-298) (complex)
